# Source: FireProtDB (doi:10.1002/pro.2449)
# B1: Guanyl-specific ribonuclease T1 wild type, P00651 (protein)
# chain: MMYSKLLTLTTLLLPTALALPSLVERACDYTCGSNCYSSSDVSTAQAAGYQLHEDGETVGSNSYPHKYNNYEGFDFSVSSPYYEWPILSSGDVYSGGSPGADRVVFNENNQLAGVITHTGASGNNFVECT
# B2: Variable large protein wild type, Q5DVG3 (protein)
# chain: MNTKKISSAILLTTFFVFINCKSQVADKDDPTNKFYQSVIQLGNGFLDVFTSFGGLVAEAFGFKSDPKKSDVKTYFTTVAAKLEKTKTDLNSLPKEKSDISSTTGKPDSTGSVGTAVEGAIKEVSELLDKLVKAVKTAEGASSGTAAIGEVVDNAAAAKAADKDSVTGIAKGIKEIVEAAGGSKKLKAAAAKGENNKGAGKLFGKAGDAAHGDSEAASKAAGAVSAVSGEQILSAIVKAAAAGDQEGKKPGEAKNPIAAAIGEGDGDAEFNQDGMKKDDQIAAAIALRGMAKDGKFAVKNDEKGKAEGAIKGAAESAVRKVLGAITGLIGDAVSSGLRKVGDSVKAASKETPPALNK
# B3: Guanyl-specific ribonuclease Sa wild type, P05798 (protein)
# chain: DVSGTVCLSALPPEATDTLNLIASDGPFPYSQDGVVFQNRESVLPTQSYGYYHEYTVITPGARTRGTRRIITGEATQEDYYTGDHYATFSLIDQTC
# Conditions: Aspergillus oryzae (strain ATCC 42149 / RIB 40); pH 7; 25 °C; Urea; MOPS; transition: 2; reversible: yes; whole UniProt chain shown
Protein,denaturant m value,denaturant midpoint (higher = more stable),unfolding free energy
B1,1.17 kcal/mol/M,5.2 M,6.1 kcal/mol

# Same assay, conditions: Aspergillus oryzae (strain ATCC 42149 / RIB 40); pH 7; Thermal; DSC; MOPS; transition: 2; reversible: yes; whole UniProt chain shown
Protein,Tm,unfolding enthalpy (calorimetric)
B1,52.5 °C,107 kcal/mol

# Same assay, conditions: Borreliella burgdorferi; pH 7; 25 °C; Urea; CD; Sodium Phosphate Buffer; transition: 2; reversible: yes; whole UniProt chain shown
Protein,denaturant m value,denaturant midpoint (higher = more stable),unfolding free energy
B2,3.86 kcal/mol/M,1.19 M,4.6 kcal/mol

# Same assay, conditions: Kitasatospora aureofaciens; pH 7; Thermal; DSC; MOPS; transition: 2; reversible: yes; whole UniProt chain shown
Protein,Tm,unfolding enthalpy (calorimetric)
B3,48.4 °C,92 kcal/mol
